Reference: a protein production outcome set (Wang et al. 2014)

Test: label from the status in PepcDB records

Sequence	protein production
MDFLLRTITMNERRALGFGVAAVLLWSTVATAFKITLEHFTPTQMLTIASAVSILALAGVAAYQKTLSQLIDTFLANPLYYILLGAINPLAYYLVLFKSYDLLPASQAQPLNYSWAITLTLMAAVFLGQKIRKQDWIACVLGYLGVIVIATKGDVLALEFDSPLGVGLALFSTLLWAGYWILNTKNKADPILGLLLGFLVALPVAIGLSIYEGAPWAQIPMSGWAAVSYVGLFEMGVTFVLWLSALRLTQNTARISNLIFASPFISLLLLANIIGEEIHPSTLIGLIMIVCGLLIQQFFGKKEELQTEQ	failed
MSYAKEMLDAIEAGQMETAKQLFTQVLAHDDDETQYNLAEELYALGFNGQAKRLYQGLLGRYPDQGDLATALADIAVSDGDTDAALNYLSRIQPGDPAYVQSLVSAADVYQTLGLYEVSEQKLLEAKRLAPDEPVVTFALGEFYFDWGHFAEAISAYNELLAAGTTELAGVNIEARLAASLAQTGQYEDAVAAYEDVGVDALDLNGRFELGGLYLQLDDPAKAITNLQAVIDSDPSYANAYLPLARAYEAQNQPDKALDTVQAGVMVDDTNPTLYALGGKLALSEDNVKLAETYLQKALAIDPEDQGNMLAWSNFLVQEERDQENVDFLDQIDRSGDVDPQIYWNMAKSYDRLENIKKARENYLLAFNRFQDSPDFLHDIIDFFQSTGARAELKAALVRYLKLVPTDDEMQARLDELNAETDLEHHHHHH	not failed
MKPIQLPLSVRLRDDATFANYYPGANAAALGYVERLCEAEAGWAESLIYLWGHDGVGRSHLLQAACLRFEQFEERTIYLPMADLVQYGPEIFDDLEQCELVCIDDLDVLVGKREWEEGLFHLFNRLRDTGRRLLLAASKSPRELQVKLPDLKSRLTMALIFQLHGLSDEDKLRALQLRASRRGLHLTDEVGRFILNRGSRSMNSLFDLLEQLDRASLQAQRKLTIPFLKETLGWLEHHHHHH	not failed
MRRNTALTRIMASGVAAIMLCAGGTFTVNAAEEEPVKADVSVKAIQGLSDDFIGGMDVSSMLSLEESGVTFKNANGEVEDLFTLLKESGVNYVRLRVWNDPFTADGQGYGGGNVNADRALTMAKRATAAGLKVLVDFHYSDFWADPSKQQVPKAWKSFEGDADKTADTVYDYTKQTLTTFKQAGVDVGMVQVGNETTAKIAGISGWDGMSKVFSAGSKAIREVLPEAKVVIHFTNPEKAGTYATYAKQLSNHNVDYDVFASSYYPFWHGTTENLTSVLKNVASTYKKDVMVAETSWAYTLDDGDDDSNTVPSKVTADNLKKYDISPQGQADEIRAVAEAVNNIGDNDGDGENDGLGVFYWEPAWVPVGTGGKDNAELVDTWNKYGGGWATEAAGEYDPNDAGLYWGGSGVDNQALFDFDGKALASLPTFKYIHTGAVTDHVFTKIDPVEITATDSDSIDAIKAQLPSEVAAHYQDGVDETETVTWQSAALDWIRGAGTYTITGTTNAGHDVTVTVTVTATPAKDYVTDGSFENAENDKNWTIAGTGASITEDSGNAADGKRALKFWASDAYSFSATQTITGLEPGEYVLTAMSQGAAADNAAITDGVALSATTGGKTTSDALELNGWVKFDTATVPVTVGADGTATITITGNLPADAWGNVDKVSLVKKTETPVKPSTENLDKAVAEAGKINRDEYTNESLAKLDQALAAADVLLAGSTYTEQDVNDVIKLVADAIAGLAQKEVSSLTVTPSKTTYQVGDAIDADHDLKVVGNYSAGMGNVTLSADQFTLDYDFSAPADAAKVTVTLKSNPNVTETYTVAVTARAEGGSGNGSDGAGNGGATINPDTGEGDKTNGANGDKITGVLSNTGSAVTAVGLAVVVLGVAGGVSLALRRKRS	failed
MNTKLTKIISGLFVATAAFQTASAGNITDIKVSSLPNKQKIVKVSFDKEIVNPTGFVTSSPARIALDFEQTGISMDQQVLEYADPLLSKISAAQNSSRARLVLNLNKPGQYNTEVRGNKVWIFINESDDTVSAPARPAVKAAPAAPAKQQAAAPSTKSAVSVSKPFTPAKQQAAAPFTESVVSVSAPFSPAKQQAAASAKQQTAAPAKQQAATPAKQTNIDFRKDGKNAGIIELAALGFAGQPDISQQHDHIIVTLKNHTLPTTLQRSLDVADFKTPVQKVTLKRLNNDTQLIITTAGNWELVNKSAAPGYFTFQVLPKKQNLESGGVNNAPKTFTGRKISLDFQDVEIRTILQILAKESGMNIVASDSVNGKMTLSLKDVPWDQALDLVMQARNLDMRQQGNIVNIAPRDELLAKDKAFLQAEKDIADLGALYSQNFQLKYKNVEEFRSILRLDNADTTGNRNTLVSGRGSVLIDPATNTLIVTDTRSVIEKFRKLIDELDVPAQQVMIEARIVEAADGFSRDLGVKFGATGKKKLKNDTSAFGWGVNSGFGGDDKWGAETKINLPITAAANSISLVRAISSGALNLELSASESLSKTKTLANPRVLTQNRKEAKIESGYEIPFTVTSIANGGSSTNTELKKAVLGLTVTPNITPDGQIIMTVKINKDSPAQCASGNQTILCISTKNLNTQAMVENGGTLIVGGIYEEDNGNTLTKVPLLGDIPVIGNLFKTRGKKTDRRELLIFITPRIMGTAGNSLRY	failed
MTQNNILLISGAILPVIITVIIGYISGKRKDFNWQQAGDINKIVMLYALPLSIFSNMVMTPRHIVMTMGPVAVAIILALILSFVIPLLVARYLFRRDLALSTLQALAIGSPAVPFIGTSVLAFLFGTVSASLITVSSITQNVFQLPLVMILMSVATGDKSQHISFGARVVNAIKQPVVWSPVIALIIVLADIHIPQTISMSLGLLGKASGGLALFAAGIVLYTRSIVITTATIITVIARNILVPGACYLILLKMGFSMEQIKEVVLTMAIPVGSIAIIIAMQYKTGEQEMASTMALSIIASIITMGGFIFLTF	failed
MFPQADEPERDTLPGQEEDPLPTGQEQPSITPIAGTEAQYIDIAEWYDSDSILYITDEGENSLVYIYNLLTGEKKSLFSSDDAVIKVTANSTHSQFAIQTVTQAGDAPVSIIDSQGELLMKLEDFGEDFSIFWSPYEEDKLIAVAYLPDWEQDLYLIDTSDKQVEMLDLDQSFVQWLDERTIVYLDWNGDSEGYYAPLYTFDLETEEVVLLHEEAIATLGFGDHVTLIIERPEQGAEVTTYQFWNGSEQLAEWSVPILRTYSEQWWIPFYDFDLNKRLFYAYKPNRTGDYFEYDGGFSFIAFDVDHGEETVLFESDEHVPFRLSPTGQRALFGPRLETVMDLPTGESNSLIELEHHHHHH	failed
MSLHFQILLWLSILFIIAGTILLVTMLKTKKEERKESYLGFTVIFLIFGFAILIYTFIFGIL	failed
MFDIGWSELLVIAVVLIVVVGPKDLPPMIRAFGKTMAGLRKMAGDFRTQFDEALKEADMDDVRQTISDVRNLNPTNSLRDAMNPLRQLGNEIKSDLQKATSPSDGLSSTAAPATSEPVAPLVNVPEPDMKLPDSPPAVAAAPAPVAAASVAAEKPKRARAKSIATVEAEAVAAKPKRVSRSKAVATPETTVATNASEPASPKPTVKTIAKKATVKKIAAEKSVAVADAKPAKAARTKAAKPKKDEA	failed
MKQTPPLISFITICYNGLDDTCMLIESLRDTISSVSYEIIVVDNASRQDEASLIQERYPFVRTLRSEKNLGFSGGNNLGIQIAQGKYLFLINNDTYLTEDGLPALIERLESDPRIGAVSPKIRFAFPPQSIQFAGYTKLSRYTMRNKALGMGCPDDGTFDTPRPSAYLHGAALMLKREVIWKAGLMPEIYFLYYEELDWCTSMTRAGYQLWYEPRCTIFHKESQSTGRQSPLRTFYMMRNRMLYAWRNLPGMERCLAIAYQMLIVAPKDSLCFVLKGEPKLAKAVWHGVKGFWKLCLEHHHHHH	not failed
MKLHLTNLYGMAGDSTVILAQNAVQKIASQLGFREVGIYFYNIASDSPSEMNKRLDGIMASISIGDILVFQSPTWNGFEFDRLLFDKLKDMQVKIICFIHDVVPLMFDSNYYLMKDYLYMYNLSDVLIVPSERMKTRLMEEGLTTKKILVQGMWDHPHDLSLYTPAFKKELFFAGSLERFPDLQNWSQDTPLRVFSNKGEASSSARSLSIEGWKKDEELLLELSKGGFGLVWGTHQNEGESNQYYTLNISHKVSTYLTAGIPVIVPSSLSTAKFIVDQGLGFMADSLEEVHEIVDKMNLQEYQEMTNRIKTFSYLLKEGYFTKKLLVDAIYHLGID	failed
LRSPRLYTHRLILRPWLVQDRARFAELNADPLVMEFFPSCLDRAQSDALLRRIDAHFAEHGFGWWALQVKGGDPFIGYVGLEVVDFDAPFVPAVAIGWRLAAEHWAEGFAHEAAEAALSYAFDTLGLDQVVAFTVPANENSLGLMERLGMHRDPTDDFEHPDLPPGHRLRHHVLYRLTREDWLRR	not failed
MSTPDGDEKEQCFHRAIAKTSIYLDREPGNPELTVWLAINKASLAGAQGGFGALSLAKEAKSLLEGVIATSPQTLDGSAYTSLGSLYYKVPGWPIGFGDDDKAEEMLKKALEINPKGIDPNYFYGDFLAEEGRDKEAKVYLTRAMQASPRPLEHHHHHH	failed
MSSGNVFLLSIASSAGMNIRLVHRLIAASCAVVLCSTVGIPAGRAGDPFRSSNPQPISASTAAAFTAAFQQGNYPAAEQALQQALRQDSSDPLVFALAGSLAFAQQNRQAFADYARQTKSKAQAIAPQQPLRSQLYIAVGELMMAASTLLPQLTGDGGVPLAAVPQALQSLQTVYGSLRAAAQINPNDPELNLVQGFVDLIVATNLPLANPSGAIAKLEKASPRYLADRGIALGLRNLKRYPEAIQYVDRAIAAAPENPELRYLKAQILVEQSKATGDANLRRAAAAEFQKALAKSSQLPQPLVWQLFFEACNNQKTFDNRGQDCVSLRDQVTQAPGPWGPATLPPL	failed
MARKNQKAPWEPEEEIIWVSKSEMKRDMEELQKLGEELVGLKPAVLEKFPLSEDLREAIADAQRFKNEARRRQLQRIGKLMRYEDPEPIQAALDKVRNKHSQATAALHKLEMLRDRVVEEGDKAIDDVMELYPEADRQRLRQLARQAAKEKKAGKPAKSYREIFQILKALNEEE	not failed
MPVLATSLVSLKVEEPYLPPRNWESLPSQSGRFLPPTRSSASSSSSSSFVSESSLVRLALNALQGVESSLISIEQLSSAFCSEPADRTFHKIPSLWHRLSSTDALGQILRDIGCFGSLVFLLHKFVDHFTRLNLDVESAVEGQGSCKIGENEEVNNKSCYTLVNQAFAIAVRRVLEGYISGLDTLCASIELRRSSNIVDGSDHGSSRLGSLTNVVHPKITLLEVFLHTRELRTQIEALANICDLYDIALSYCASPWECLITEATTRFHGFYRGSDLLTYLYSQLQVADPTHSAMLKFLFLKTCEPYCEFIRSWMFKAELNDPHKEFIVECRSESTSFSWNKPGISPLKSVRERGGLVPCFLNGFLEPIVRAGQQLQVITKLLELCNLPASGHKNYTDLLPCWTYFSTTSPGYPSPITFSKLHIEVMIKKRDDYYRMMQEKLGDFSEKFEVFPGQVPGAISLPISYGDGDKNSIYFTLDESLLIPSTMAIDLTRDQSGSDSDDQNTEDRWFSEIDASCSSECSSTRDSLEASEVGLLDSQSTLVGPPPNYLSALRFSVASNGNCNQNLVQHSDSGYIDNNLVRQGEKADINHQWVDTKPEESTGVCEDDKFRGPLLIKSWPLGGLPRNPFCVDKKSADDDSEDPRNYSGARMEQRHLMNTDERKLFLNNISTSGSCSKHERRHDVLENCLSSKLDLMKDTKVNYPNDVLSMNPLVRCDFLRKHGNTNKRNQGKSLPWFDFSAVDDPSKTCITRIPVRVPIDFQKESHSPQTDRKSHRHANQERFDVEDPKVSSSQLSSGIKGCAEEKKSNAFGGGRWESMLRRSNNPETSAFSDRRQDSSGTFELPLDFVIDKCLLQEIHLQYPSRYFHLLEIYIFSKLAIKLLEEGFGLQEHLLALRRYHFMELADWADVFVVSLWHHKWLVTEADKRIAEIQGFLESSIQRSSCERDICKDRIFLYKRQGTMHIPPSTIGVRSFDFLRLGYRVDWPISIILTCDALTAYADVFSFLVQVKLAAYVLTDVWCSLKVKDMMDLESVHMAYLSEALRIGIQSTDRVPNDSWTKTLGINTSQNFDKELKELHKCHLRSPKHGKYGLSRFWDYLNFNLYYSDILHDSNIFSLIP	failed
